Data published in US8044021B2, “Sustained release of apo A-I mimetic peptides and methods of treatment” (Abbott Cardiovascular Systems Inc., priority 2007, dated 2011).
Each block holds one compound with its values, some of them ahead of it. Ends that are not written are not given here.

Legend:
[1] = turbidity change of DMPC multilamellar vesicles (MLV) after mixing with peptide; type: physicochemical
Protocol: A mimetic peptide, SEQ ID NO: 4, was mixed with multilamellar vesicles comprised of DMPC. A DMPC chloroform solution was gently dried by nitrogen stream in the fume hood or by rotor evaporator. Resultant lipid film was further dried in vacuum desiccators and subjected to vacuum for at least 3 hours to remove residual chloroform. Phosphate buffered saline (PBS) was added to the lipid film and mixed using a vortex mixer to prepare an MLV suspension (2.5 mg/mL). The peptide was dissolved in PBS (1 mg/mL) then mixed with the same volume of MLV suspension at room temperature. […] At 0.5 mg/mL mimetic peptide in solution, the absorbance at 400 nm is zero. At 1.25 mg/mL DMPC in solution, the absorbance at 400 nm is 0.1. When the two solutions are combined and after approximately 5 minutes of mixing, the absorbance begins to approach zero. After approximately 15 minutes of mixing, the solution becomes completely clear, i.e., the absorbance is zero, thus evidencing mimetic peptide/phospholipid complexing.

[2] = circular dichroism (CD) spectra, calculated percent secondary structure; type: physicochemical
[3] = CD spectra after heating then cooling; type: physicochemical; details: 25° C., heated to 70° C., cooled back to 25° C.; 0.0625-0.5 mg/mL
Protocol: As shown in each chart (vii) through (x), a CD spectrum of the mimetic peptide was obtained at t1=25° C., then heated to t2=70° C., then cooled back to t3=25° C. for varying concentrations, e.g., 0.5 mg/mL mimetic peptide, 0.25 mg/mL mimetic peptide, 0.125 mg/mL mimetic peptide, and 0.0625 mg/mL mimetic peptide. The spectrums at t and t3 show a substantially identical spectrum for each of t1 and t3 at the various concentrations, thus indicating the mimetic peptide's secondary structure change is reversible when subjected to heat.

[4] = test system: reverse cholesterol transport; details: cited from earlier work

absorbance at 400 nm ([1]; 1.25 mg/mL DMPC in solution (MLV in PBS)): 0.1
Compound: CCCCCCCCCCCCCC(=O)OC[C@H](COP(=O)([O-])OCC[N+](C)(C)C)OC(=O)CCCCCCCCCCCCC [DMPC, dimyristoylphosphatidylcholine, reference compound]

Compound: Ac-DWFKAFYDKVAEKFKEAF-NH2 [SEQ ID NO: 4, 18-mer peptide, 4F, N-acetyl, C-amide]
absorbance at 400 nm ([1]; 0.5 mg/mL mimetic peptide in solution (PBS)): zero | alpha helicity ([2]; 0.125 mg/mL mimetic peptide): 10.5% | alpha helicity ([2]; 0.25 mg/mL mimetic peptide): 16% | alpha helicity ([2]; 0.5 mg/mL mimetic peptide): 19.5% | secondary structure change when subjected to heat [3]: reversible

Compound: DWFKAFYDKVAEKFKEAF (not fully specified) [D-4F, 18-mer apo A-I mimetic peptide 4F, D enantiomer]
reverse cholesterol transport in vitro ([4]; when a phospholipid complex is presented): function more effectively | reverse cholesterol transport ([4]; without a lipid complex): effective

Compound: PALEDLRQGLLPVLESFKVFLSALEEYTKKLNTQ [33-mer peptide mimetic]
need of phospholipid complex for effective reverse cholesterol transport [4]: requires phospholipid complex formation
